Assay results from publication PMC6336354, “A transient helix in the disordered region of dynein light intermediate chain links the motor to structurally diverse adaptors for cargo transport” (PLoS Biology, 2019).

Tests used:
Conditions in all cases: both partners purified
[1] = biological target: T1, BICD2(2–422)::Strep-tag II (human, UniProt Q8TD16 2-422); test: pull-down; GST::LIC::6xHis (50 pmol) with 50 or 250 pmol adaptor and glutathione agarose, 1 h at 4°C, 150 μL of 50 mM HEPES, 100 mM NaCl, 5 mM DTT, pH 7.5, 0.1% Tween 20; Coomassie staining and immunoblot against Strep-tag II
T1 construct: human bicaudal D homolog 2 (BICD2), N-terminal region, residues 2-422; also called bicaudal D homolog 2; source: E. coli BL21, purified (Ni-NTA, TEV cleavage, Strep-Tactin; dialysis or SEC); not shown: 6xHis::MBP, N-terminal, cleaved; Strep-tag II (after linker GSGSGR), C-terminal, kept
T1 sequence (Q8TD16 2-422): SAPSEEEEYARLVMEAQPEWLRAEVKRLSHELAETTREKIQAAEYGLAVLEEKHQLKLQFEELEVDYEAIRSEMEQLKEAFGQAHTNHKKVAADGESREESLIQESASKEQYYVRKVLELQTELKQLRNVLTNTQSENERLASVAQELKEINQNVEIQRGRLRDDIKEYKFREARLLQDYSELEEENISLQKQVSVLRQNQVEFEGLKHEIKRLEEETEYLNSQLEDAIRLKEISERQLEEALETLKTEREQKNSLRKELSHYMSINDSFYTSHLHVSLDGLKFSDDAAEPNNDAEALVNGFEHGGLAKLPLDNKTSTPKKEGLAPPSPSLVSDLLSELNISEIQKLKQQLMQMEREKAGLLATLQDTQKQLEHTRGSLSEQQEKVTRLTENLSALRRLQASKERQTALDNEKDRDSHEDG

[2] = biological target: T2, HOOK3(2–552)::Strep-tag II (human, UniProt Q86VS8 2-552); test: as above
T2 construct: human Hook homolog 3 (HOOK3), residues 2-552; used for the GST pull-downs; also called Hook homolog 3; source: E. coli Rosetta, purified (Ni-NTA, TEV cleavage, Strep-Tactin; dialysis or SEC); not shown: 6xHis::MBP, N-terminal, cleaved; Strep-tag II (after linker GSGSGR), C-terminal, kept
T2 sequence (looked up): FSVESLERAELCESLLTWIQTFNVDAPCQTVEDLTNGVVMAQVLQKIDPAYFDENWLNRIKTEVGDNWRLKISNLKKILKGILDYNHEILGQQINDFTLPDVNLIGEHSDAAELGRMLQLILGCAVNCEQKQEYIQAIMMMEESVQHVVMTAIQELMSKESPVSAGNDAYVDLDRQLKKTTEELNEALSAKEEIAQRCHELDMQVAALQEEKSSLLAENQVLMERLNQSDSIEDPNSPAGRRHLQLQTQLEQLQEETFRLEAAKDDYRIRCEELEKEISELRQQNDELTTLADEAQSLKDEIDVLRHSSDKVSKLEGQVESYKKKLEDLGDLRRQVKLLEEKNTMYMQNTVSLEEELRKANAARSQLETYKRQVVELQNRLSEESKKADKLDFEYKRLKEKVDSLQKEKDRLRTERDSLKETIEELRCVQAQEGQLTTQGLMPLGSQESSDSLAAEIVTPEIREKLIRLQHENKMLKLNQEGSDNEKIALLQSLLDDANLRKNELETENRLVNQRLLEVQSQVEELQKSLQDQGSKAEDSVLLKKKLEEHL

[3] = biological target: T3, RILP(1–401)::Strep-tag II (human, UniProt Q96NA2 1-401); test: as above
T3 construct: also called RILP::Strep-tag II; source: Sf21 insect cells (baculovirus), purified (Strep-Tactin Sepharose); not shown: Strep-tag II (after linker GSGSGR), C-terminal, kept
T3 sequence (looked up): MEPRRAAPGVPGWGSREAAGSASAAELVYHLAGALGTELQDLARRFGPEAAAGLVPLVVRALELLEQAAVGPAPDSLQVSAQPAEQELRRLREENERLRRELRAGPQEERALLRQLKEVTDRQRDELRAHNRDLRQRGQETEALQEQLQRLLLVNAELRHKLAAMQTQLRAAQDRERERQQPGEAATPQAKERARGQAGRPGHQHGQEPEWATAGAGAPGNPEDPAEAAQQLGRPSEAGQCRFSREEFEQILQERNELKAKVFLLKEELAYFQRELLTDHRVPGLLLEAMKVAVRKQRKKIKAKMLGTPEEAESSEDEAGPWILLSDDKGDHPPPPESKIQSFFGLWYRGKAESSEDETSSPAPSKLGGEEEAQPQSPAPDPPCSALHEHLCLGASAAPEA

[4] = biological target: T3, RILP(1–401)::Strep-tag II; test: SPR; Biacore X100, CM5 chip; GST::LIC1::6xHis captured by immobilised anti-GST antibody, RILP::Strep-tag II as analyte (0.3–50 μM); 25°C; 10 mM HEPES, 150 mM NaCl, 3 mM EDTA, 0.05% surfactant P20, pH 7.4; 1:1 model
[5] = biological target: T4, RAB11FIP3(2–756)::Strep-tag II (human, UniProt O75154 2-756); test: pull-down; GST::LIC::6xHis (50 pmol) with 50 or 250 pmol adaptor and glutathione agarose, 1 h at 4°C, 150 μL of 50 mM HEPES, 100 mM NaCl, 5 mM DTT, pH 7.5, 0.1% Tween 20; Coomassie staining and immunoblot against Strep-tag II
T4 construct: source: E. coli BL21, purified (Ni-NTA, TEV cleavage, Strep-Tactin; dialysis or SEC); not shown: 6xHis::MBP, N-terminal, cleaved; Strep-tag II (after linker GSGSGR), C-terminal, kept
T4 sequence (looked up): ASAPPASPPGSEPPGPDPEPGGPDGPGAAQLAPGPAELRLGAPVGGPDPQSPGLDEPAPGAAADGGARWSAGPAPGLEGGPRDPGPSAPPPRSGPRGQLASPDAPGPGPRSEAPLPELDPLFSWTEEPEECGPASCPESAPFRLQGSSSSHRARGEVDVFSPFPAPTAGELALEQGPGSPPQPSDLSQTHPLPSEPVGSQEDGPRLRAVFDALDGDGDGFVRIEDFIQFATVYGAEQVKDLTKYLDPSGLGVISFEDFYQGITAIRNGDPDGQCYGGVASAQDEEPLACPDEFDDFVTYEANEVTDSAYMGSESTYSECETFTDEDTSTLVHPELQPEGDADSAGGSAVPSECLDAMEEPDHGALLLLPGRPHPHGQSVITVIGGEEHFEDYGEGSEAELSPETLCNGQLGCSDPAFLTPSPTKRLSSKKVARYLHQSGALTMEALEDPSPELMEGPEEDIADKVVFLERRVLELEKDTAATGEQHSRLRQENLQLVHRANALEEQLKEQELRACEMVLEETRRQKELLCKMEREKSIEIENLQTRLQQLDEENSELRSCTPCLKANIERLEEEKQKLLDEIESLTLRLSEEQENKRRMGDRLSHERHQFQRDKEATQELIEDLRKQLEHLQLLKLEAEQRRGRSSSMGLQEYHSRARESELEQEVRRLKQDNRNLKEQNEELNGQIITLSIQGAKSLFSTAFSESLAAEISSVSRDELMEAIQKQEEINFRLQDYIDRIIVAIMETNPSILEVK

NIN(1–693)::Strep-tag II = biological target: T5, NIN(1–693)::Strep-tag II (human, UniProt Q8N4C6 1-693); test: as above
T5 construct: human ninein (NIN), N-terminal fragment, residues 1-693 of 2,090; also called ninein; source: E. coli Rosetta, purified (Ni-NTA, TEV cleavage, Strep-Tactin; dialysis or SEC); not shown: 6xHis::MBP, N-terminal, cleaved; Strep-tag II (after linker GSGSGR), C-terminal, kept
T5 sequence (looked up): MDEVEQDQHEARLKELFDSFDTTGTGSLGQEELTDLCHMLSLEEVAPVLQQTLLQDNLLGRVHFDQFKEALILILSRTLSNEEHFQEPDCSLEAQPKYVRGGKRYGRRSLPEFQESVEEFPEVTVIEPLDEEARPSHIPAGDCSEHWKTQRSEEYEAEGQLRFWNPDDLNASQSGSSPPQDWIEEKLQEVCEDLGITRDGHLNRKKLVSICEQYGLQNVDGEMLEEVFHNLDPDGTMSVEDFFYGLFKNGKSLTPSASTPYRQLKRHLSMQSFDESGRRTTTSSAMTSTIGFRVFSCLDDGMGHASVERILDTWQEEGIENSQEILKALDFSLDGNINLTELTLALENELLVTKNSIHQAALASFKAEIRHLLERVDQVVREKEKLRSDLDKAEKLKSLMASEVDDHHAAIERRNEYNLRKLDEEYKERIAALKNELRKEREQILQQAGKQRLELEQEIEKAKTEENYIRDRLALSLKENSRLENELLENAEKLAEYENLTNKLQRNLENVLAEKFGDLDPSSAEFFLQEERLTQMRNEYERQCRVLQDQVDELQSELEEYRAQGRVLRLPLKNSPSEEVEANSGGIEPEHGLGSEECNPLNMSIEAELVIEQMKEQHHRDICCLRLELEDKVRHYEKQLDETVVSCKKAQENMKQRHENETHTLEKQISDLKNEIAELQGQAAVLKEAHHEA

[6] = biological target: T6, SPDL1(2–359)::Strep-tag II (human, UniProt Q96EA4 2-359); test: SPR; Biacore 3000; His-tagged LIC1 immobilised on NTA chip (200–300 RU), Strep-tagged adaptor as analyte; HBS-P (10 mM HEPES, 150 mM NaCl, 0.005% surfactant P20, pH 7.4)
T6 construct: human Spindly (SPDL1), N-terminal region, residues 2-359; also called Spindly; source: E. coli BL21, purified (Ni-NTA, TEV cleavage, Strep-Tactin; dialysis or SEC); not shown: 6xHis::MBP, N-terminal, cleaved; Strep-tag II (after linker GSGSGR), C-terminal, kept
T6 sequence (looked up): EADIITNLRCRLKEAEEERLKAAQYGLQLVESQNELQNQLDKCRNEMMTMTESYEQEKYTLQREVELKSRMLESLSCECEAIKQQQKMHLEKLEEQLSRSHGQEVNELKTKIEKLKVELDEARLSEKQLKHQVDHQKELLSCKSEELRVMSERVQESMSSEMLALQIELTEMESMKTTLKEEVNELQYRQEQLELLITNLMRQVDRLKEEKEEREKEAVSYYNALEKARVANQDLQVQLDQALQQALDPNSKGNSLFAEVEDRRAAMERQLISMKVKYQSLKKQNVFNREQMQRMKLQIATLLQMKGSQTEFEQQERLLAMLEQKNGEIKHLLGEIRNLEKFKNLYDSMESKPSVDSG

[7] = biological target: T1, BICD2(2–422)::Strep-tag II; test: as above

B1: GST::LIC1(424–471)::6xHis (domain or fragment, human)
chain: WPAGSKKIDPNMKAGATSEGVLANFFNSLLSKKTGSPGGPGVSGGSPAG
notes: single N-terminal tryptophan added in the construct; human dynein light intermediate chain 1 (DYNC1LI1), residues 424-471; source: E. coli BL21, purified (glutathione agarose, Ni-NTA; dialysis or SEC); not shown: GST, N-terminal, kept; 6xHis (after linker GSGSG), C-terminal, kept
binding result [1]: binds | binding result [2]: binds | binding result [3]: binds

B2: GST::LIC1(440–455)::6xHis (peptide)
chain: WSEGVLANFFNSLLSKK
notes: single N-terminal tryptophan added in the construct; human dynein light intermediate chain 1 (DYNC1LI1), helix 1, residues 440-455; also called LIC1-C helix 1; GST::LIC1(440–455)::6His; source: E. coli BL21, purified (glutathione agarose, Ni-NTA; dialysis or SEC); not shown: GST, N-terminal, kept; 6xHis (after linker GSGSG), C-terminal, kept
Kd [4]: 1670 nM | koff [4]: 0.000996 s⁻¹ | kon [4]: 606 M⁻¹ s⁻¹

B3: GST::LIC1(388–471)::6xHis (domain or fragment, human)
chain: WPTAAGRPVDASPRVPGGSPRTPNRSVSSNVASVSPIPAGSKKIDPNMKAGATSEGVLANFFNSLLSKKTGSPGGPGVSGGSPAG
notes: single N-terminal tryptophan added in the construct; source: E. coli BL21, purified (glutathione agarose, Ni-NTA; dialysis or SEC); not shown: GST, N-terminal, kept; 6xHis (after linker GSGSG), C-terminal, kept
binding result [2]: binds | binding result [3]: binds | binding result [5]: binds | binding result (NIN(1–693)::Strep-tag II): binds

B4: LIC1(388–471)::6xHis (domain or fragment, human)
chain: B3 chain
notes: single N-terminal tryptophan added in the construct; source: E. coli BL21, purified (GSTrap, PreScission cleavage, second GSTrap, SEC Superdex 75); not shown: GST, N-terminal, cleaved; 6xHis (after linker GSGSG), C-terminal, kept
Kd [6]: 5400 nM | Kd [7]: 700 nM

B5: GST::LIC1(440–471)::6xHis (domain or fragment, human)
chain: WSEGVLANFFNSLLSKKTGSPGGPGVSGGSPAG
notes: single N-terminal tryptophan added in the construct; human dynein light intermediate chain 1 (DYNC1LI1), residues 440-471; source: E. coli BL21, purified (glutathione agarose, Ni-NTA; dialysis or SEC); not shown: GST, N-terminal, kept; 6xHis (after linker GSGSG), C-terminal, kept
binding result [1]: binds | binding result [2]: binds | binding result [3]: binds

B6: GST::LIC1(388–523)::6xHis (domain or fragment, human)
chain: WPTAAGRPVDASPRVPGGSPRTPNRSVSSNVASVSPIPAGSKKIDPNMKAGATSEGVLANFFNSLLSKKTGSPGGPGVSGGSPAGGAGGGSSGLPPSTKKSGQKPVLDVHAELDRITRKPVTVSPTTPTSPTEGEAS
notes: single N-terminal tryptophan added in the construct; also called LIC1-C; source: E. coli BL21, purified (glutathione agarose, Ni-NTA; dialysis or SEC); not shown: GST, N-terminal, kept; 6xHis (after linker GSGSG), C-terminal, kept
Kd [4]: 1180 nM | koff [4]: 0.00101 s⁻¹ | kon [4]: 872 M⁻¹ s⁻¹ | binding result [5]: binds | binding result (NIN(1–693)::Strep-tag II): binds
